From the Immune Epitope Database (IEDB)

What was measured:
HLA-A*02:01 [1] = experiment: IEDB peptide-MHC binding, cellular MHC/competitive/fluorescence; ≥ and ≤ were set here for values at or beyond the usual limits of such assays
HLA-C*14:02 = experiment: IEDB peptide-MHC binding, purified MHC/direct/fluorescence; filed as Kd, often an IC50 or EC50 that approximates it; ≥ and ≤ were set here for values at or beyond the usual limits of such assays
HLA-A*02:11 = experiment: as above; conditions: source organism: Listeria monocytogenes serotype 4b str. H7858
HLA-B*46:01 = experiment: as above; conditions: source organism: Listeria monocytogenes serotype 4b str. H7858
HLA-B*57:01 = experiment: as above; conditions: source organism: Listeria monocytogenes serotype 4b str. H7858
HLA-A*02:03 = experiment: as above; conditions: source organism: Listeria monocytogenes serotype 4b str. H7858
HLA-A*24:03 [2] = experiment: as above; conditions: source organism: Listeria monocytogenes serotype 4b str. H7858
HLA-A*03:01 = experiment: as above
HLA-A*02:16 = experiment: as above; conditions: source organism: Listeria monocytogenes serotype 4b str. H7858
HLA-B*15:01 = experiment: as above
HLA-B*51:01 = experiment: as above; conditions: source organism: Listeria monocytogenes serotype 4b str. H7858
HLA-A*29:02 = experiment: as above; conditions: source organism: Listeria monocytogenes serotype 4b str. H7858
HLA-A*02:12 = experiment: as above; conditions: source organism: Listeria monocytogenes serotype 4b str. H7858
HLA-B*27:03 = experiment: as above; conditions: source organism: Listeria monocytogenes serotype 4b str. H7858
HLA-A*02:19 = experiment: as above; conditions: source organism: Listeria monocytogenes serotype 4b str. H7858
HLA-A*69:01 = experiment: as above
HLA-C*05:01 = experiment: as above
HLA-A*26:01 = experiment: as above
HLA-A*68:02 = experiment: as above; conditions: source organism: Listeria monocytogenes serotype 4b str. H7858
HLA-B*15:17 = experiment: as above; conditions: source organism: Listeria monocytogenes serotype 4b str. H7858
HLA-A*02:01 [3] = experiment: as above
HLA-B*18:01 = experiment: as above; conditions: source organism: Listeria monocytogenes serotype 4b str. H7858
HLA-A*24:03 [4] = experiment: IEDB peptide-MHC binding, purified MHC/competitive/fluorescence; filed as Kd, often an IC50 or EC50 that approximates it; ≥ and ≤ were set here for values at or beyond the usual limits of such assays; conditions: source organism: Bacillus cereus G9241
HLA-C*15:02 = experiment: IEDB peptide-MHC binding, purified MHC/direct/fluorescence; filed as Kd, often an IC50 or EC50 that approximates it; ≥ and ≤ were set here for values at or beyond the usual limits of such assays
HLA-A*01:01 = experiment: as above
HLA-B*58:01 = experiment: as above
HLA-A*31:01 = experiment: as above
HLA-A*11:01 = experiment: as above
HLA-B*73:01 = experiment: as above
HLA-B*07:02 = experiment: as above
HLA-B*27:05 = experiment: as above
HLA-B*08:01 = experiment: as above
HLA-B*40:01 = experiment: as above
HLA-B*35:01 = experiment: as above; conditions: source organism: Giardia lamblia ATCC 50803
HLA-B*44:02 = experiment: as above
HLA-A*30:01 = experiment: as above; conditions: source organism: Brucella melitensis
HLA-C*12:03 = experiment: as above; conditions: source organism: Giardia lamblia ATCC 50803
[5] = source organism: Listeria monocytogenes serotype 4b str. H7858
[6] = source organism: Burkholderia pseudomallei 1710b
[7] = source organism: Giardia lamblia ATCC 50803
[8] = source organism: Brucella abortus
[9] = source organism: Brucella melitensis

Substance: ALGGGATGV
- IC50 (HLA-A*02:01 [1]; source organism: Mycobacterium tuberculosis): 1.4 µM

Substance: APAAAAQAV
- Kd (HLA-C*14:02; source organism: Mycobacterium tuberculosis C): 3.08 µM

Substance: FRDEAGAIL
- Kd (HLA-A*02:11): ≥ 20 µM
- Kd (HLA-B*46:01): ≥ 20 µM
- Kd (HLA-B*57:01): ≥ 20 µM
- Kd (HLA-A*02:03): ≥ 20 µM
- Kd (HLA-A*24:03 [2]): ≥ 20 µM
- Kd (HLA-A*03:01; [5]): ≥ 20 µM
- Kd (HLA-A*02:16): ≥ 20 µM
- Kd (HLA-B*15:01; [5]): ≥ 20 µM
- Kd (HLA-B*51:01): ≥ 20 µM
- Kd (HLA-A*29:02): ≥ 20 µM
- Kd (HLA-A*02:12): ≥ 20 µM
- Kd (HLA-B*27:03): ≥ 20 µM
- Kd (HLA-A*02:19): ≥ 20 µM
- Kd (HLA-A*69:01; [5]): ≥ 20 µM
- Kd (HLA-C*05:01; source organism: Listeria monocytogenes FSL R2-503): 2.21 µM
- Kd (HLA-A*26:01; [5]): ≥ 20 µM
- Kd (HLA-A*68:02): ≥ 20 µM
- Kd (HLA-B*15:17): ≥ 20 µM
- Kd (HLA-A*02:01 [3]; [5]): ≥ 20 µM
- Kd (HLA-B*18:01): ≥ 20 µM

Substance: KFIILLTSF
- Kd (HLA-C*14:02; source organism: Bacillus cereus G9241): 1.23 µM
- Kd (HLA-A*24:03 [4]): 0.159 µM

Substance: KTADVTVVF
- Kd (HLA-C*15:02; [6]): 0.253 µM
- Kd (HLA-C*05:01; [6]): 0.06 µM

Substance: LGIVCPI
- IC50 (HLA-A*02:01 [1]; source organism: Human papillomavirus 16): 0.7 µM

Substance: RHIAIQVCY
- Kd (HLA-A*01:01; [7]): ≥ 20 µM
- Kd (HLA-B*58:01; [7]): ≥ 20 µM
- Kd (HLA-A*03:01; [7]): ≥ 20 µM
- Kd (HLA-B*15:01; [7]): 1.73 µM
- Kd (HLA-A*31:01; [7]): ≥ 20 µM
- Kd (HLA-A*11:01; [7]): ≥ 20 µM
- Kd (HLA-B*73:01; [7]): ≥ 20 µM
- Kd (HLA-A*69:01; [7]): ≥ 20 µM
- Kd (HLA-B*07:02; [7]): ≥ 20 µM
- Kd (HLA-B*27:05; [7]): 3.36 µM
- Kd (HLA-B*08:01; [7]): ≥ 20 µM
- Kd (HLA-A*26:01; [7]): ≥ 20 µM
- Kd (HLA-A*02:01 [3]; [7]): ≥ 20 µM
- Kd (HLA-B*40:01; [7]): ≥ 20 µM
- Kd (HLA-B*35:01): 1.19 µM
- Kd (HLA-B*44:02; [7]): ≥ 20 µM

Substance: SRIGAWASK
- Kd (HLA-A*01:01; [8]): ≥ 20 µM
- Kd (HLA-B*58:01; [8]): ≥ 20 µM
- Kd (HLA-A*03:01; [9]): 5.83 µM
- Kd (HLA-A*30:01): 1.27 µM
- Kd (HLA-B*15:01; [8]): ≥ 20 µM
- Kd (HLA-A*31:01; [8]): ≥ 20 µM
- Kd (HLA-A*11:01; [9]): 1.22 µM
- Kd (HLA-B*73:01; source organism: Brucella suis 1330): ≥ 20 µM
- Kd (HLA-A*69:01; [8]): ≥ 20 µM
- Kd (HLA-B*07:02; [8]): ≥ 20 µM
- Kd (HLA-B*27:05; [9]): 0.0531 µM
- Kd (HLA-B*08:01; [8]): ≥ 20 µM
- Kd (HLA-A*26:01; [8]): ≥ 20 µM
- Kd (HLA-A*02:01 [3]; [8]): ≥ 20 µM
- Kd (HLA-B*40:01; [8]): ≥ 20 µM
- Kd (HLA-B*44:02; [8]): ≥ 20 µM

Substance: VLDVGDAYFSV
- IC50 (HLA-A*02:01 [1]; source organism: Human immunodeficiency virus 1): 7 µM

Substance: YLYLRPYAL
- Kd (HLA-C*15:02; [7]): 3.05 µM
- Kd (HLA-C*12:03): 0.029 µM
- Kd (HLA-B*08:01; [7]): 0.016 µM
- Kd (HLA-C*14:02; [7]): 0.151 µM
